Assay results taken from article PMC7891125 (Cell, 2021).

Biological target: T1, SARS-Cov2 Spike ectodomain for structural analysis (SARS-CoV-2 Wuhan-Hu-1 (MN908947), UniProt P0DTC2, RRAR > GSAS at residues 682-685 | KV > PP at residues 986-987)
T1 construct: also called trimeric spike
Assay: cryo-EM structure; spike (S ~0.6 μm) with Fab or IgG (1:6 molar ratio), applied to the grid almost immediately
Conditions: both partners purified

B1: Fab 253H165L (Fab, V domains shown)
VH: not shown
VL: DIVMTQSPGTLSLSPGERATLSCRASQSVRSSYLAWYQQKPGQAPRLLIYGASRRGTGIPDRFSGSGSGTDFTLTISRLEPEDFAVYYCQQYGSSPWTFGQGTKVEIK
notes: also called chimera 253H165L
B1: binds.

B2: Strep-tagged Fab316 (Fab, V domains shown)
VH: not shown
VL: QAVLTQPPSASGSPGQSVTISCTGTSSDVGGYNYVSWYQQHPGKAPKLMIYEVSKRPSGVPDRFSGSKSGNTASLTVSGLQAEDEADYYCSSYAGSNHWVFGGGTKLTVL
For B2, the “stoichiometry N” value was 3 Fabs/trimer.

B3: Strep-tagged Fab 158 (Fab, V domains shown)
VH: EVQLLESGGDLIQPGGSLRLSCAASGVTVSSNYMSWVRQAPGKGLEWVSIIYPGGSTFYADSVKGRFTISRDNSKNTLYLQMHSLRAEDTAVYYCARDLGSGDMDVWGKGTTVTVSS
VL: DIVMTQSPSFLSASVGDRVTITCRASQGISSYLAWYQQKPGKAPKLLIQAASTLQSGVPSRFSGSGSGTEFTLTISSLQPEDFATYYCQQLNSYRYTFGQGTKVEIK
notes: also called Fab58 (as printed in the crystallization paragraph); source: HEK293T, transient transfection, purified (Strep-Tactin)
B3: binds.

B4: Strep-tagged Fab88 (Fab, V domains shown)
VH: QLQLQESGPGLVKPSQTLSLTCTVSGGSISSGSYNWTWIRQPAGKGLEWIGRIYNSGSTNYNPSLKSRVTISVDTSKNQLSLKVRSVTAADTAVYYCARHCSGGTCYPKYYYGMDVWGQGTTVTVSS
VL: QSALTQPPSVSEAPRQRVTISCSGSSSNIGNNAVNWYQQFPGKAPKLLIYYDDLLPSGVSDRFSGSKSGTSASLAISGVQSEDEADYYCAAWDDSLNVVVFGGGTKLTVL
notes: source: HEK293T, transient transfection, purified (Strep-Tactin)
In the case of B4, the “stoichiometry N” value is reported as 3 Fabs/trimer.

B5: Strep-tagged Fab150 (Fab, V domains shown)
VH: QVQLVESGGGLIQPGGSLRLSCAASGVTVSSNYMSWVRQAPGKGLEWVSIIYSGGTTYYADSVKGRFTISRDSSMNTLYLQMNSLRAEDTAVYYCARDLMVYGIDVWGQGTTVTVSS
VL: EIVMTQSPSSLSASVGDRVTITCRASQGISSYLAWYQQKPGKAPKLLIYAASTLQSGVPSRFSGSGSGTDFTLTISSLQPEDFATYYCQQLDSYPPGYTFGQGTKVDIK
notes: as for B4
B5: binds.
